± gives the uncertainty stated by the source.
Experiment: self-splicing fitness, log relative to wild type (ln ratio); higher = more splicing; Tetrahymena group I intron in knt gene, E. coli kanamycin selection, DiMSum; sequences stand for … in CUCUCU…GGAGGGAAAAGUUAUCAGGCAUGCACCUGGUAGCUAGUCUUUAAACCAAUAGAUUGCAUCGGUUUAAAAGGCAAGACCGUCAAAUUGCGGGAAAGGGGUCAACAGCCGUUCAGUACCAAGUCUCAGGGGAAACUUUGAGAUGGCCUUGCAAAGGGUAUGGUAAUAAGCUGACGGACAUGGUCCUAACCACGCAGCCAAGUCCUAAGUCAACAGAUCUUCUGUUGAUAUGGAUGCAGUUCACAGACUAAAUGUCGGUCGGGGAAGAUGUAUUCUUCUCAUAAGAUAUAGUCGGACCUCUCCUUAAUGGGAGCUAGCGGAUGAAGUGAUGCAACACUGGAGCCGCUGGGAACUAAUUUGUAUGCGAAAGUAUAUUGAUUAGUUUUGGAGUACUCGUGGUCG
Method in brief: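 Six replicate transformations of E. coli BL21(DE3) with a pET-22b(+) library were grown overnight at 37°C or 30°C. The library randomised all eight P1ex-region intron nucleotides, the intron lying in the knt kanamycin-resistance gene, and plates were LB agar with or without 25 μg/mL kanamycin plus 100 μg/mL carbenicillin, 50 μM IPTG and 0.2% rhamnose. Pooled colonies were amplicon-sequenced on an Illumina HiSeq 2500, and fitness is the DiMSum error-weighted combination of wild-type-normalised replicate fold changes, kanamycin versus none.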

Sequence	self-splicing fitness (ln) (30 °C)	self-splicing fitness (ln) (37 °C)
GAACAGCAAUAUUACGCAAG	-3.31 ± 0.23	-1.41 ± 0.17
GAACAGCAAUAUUACGCCAA	-1.94 ± 0.42	-2.06 ± 0.32
GAACAGCAAUAUUACGCUAG	-1.69 ± 0.098	-0.109 ± 0.092
GAACAGCAAUAUUACGCUUA	-1.2 ± 0.084	-0.826 ± 0.099
GAACAGCAAUAUUACGGAGG	-3.02 ± 0.14	-2.54 ± 0.2
GAACAGCAAUAUUACGGCAG	-2.31 ± 0.12	-3.02 ± 0.24
GAACAGCAAUAUUACGGCUA	-0.474 ± 0.077	-0.117 ± 0.084
GAACAGCAAUAUUACGGGGG	-2.08 ± 0.15	-2.42 ± 0.2
GAACAGCAAUAUUACGGGUU	-2.91 ± 0.1	-2.04 ± 0.11
GAACAGCAAUAUUACGUAGC	-0.75 ± 0.074	-0.22 ± 0.1
GAACAGCAAUAUUACGUAUA	-0.835 ± 0.083	-0.324 ± 0.1
GAACAGCAAUAUUACGUAUG	-1.02 ± 0.091	-0.888 ± 0.12
GAACAGCAAUAUUACGUCAG	-2.51 ± 0.21	-3.2 ± 0.36
GAACAGCAAUAUUACGUGCU	-2.89 ± 0.14	-1.88 ± 0.14
GAACAGCAAUAUUACGUUAC	-2.53 ± 0.14	-1.32 ± 0.16
GAAGAGCAAUAUUACGACAU	-2.22 ± 0.017	-1.35 ± 0.035
GAAGAGCAAUAUUACGACGC	-1.55 ± 0.15	0.291 ± 0.16
GAAGAGCAAUAUUACGAGUG	-4.54 ± 0.41	-2.81 ± 0.24
GAAGAGCAAUAUUACGCAAA	–	-2.69 ± 0.33
GAAGAGCAAUAUUACGCAAG	-3.6 ± 0.39	-2.68 ± 0.36
GAAGAGCAAUAUUACGCAAU	-3.87 ± 0.2	-1.65 ± 0.13
GAAGAGCAAUAUUACGCACC	-0.341 ± 0.2	0.037 ± 0.22
GAAGAGCAAUAUUACGCAGA	-2.65 ± 0.32	-2.73 ± 0.41
GAAGAGCAAUAUUACGCCAA	–	-2.54 ± 0.45

Sequence	self-splicing fitness (ln) (30 °C)	self-splicing fitness (ln) (37 °C)
GAAGAGCAAUAUUACGCCCG	-1.59 ± 0.47	–
GAAGAGCAAUAUUACGCCUA	-2.55 ± 0.34	-1.3 ± 0.25
GAAGAGCAAUAUUACGCGAA	-3.32 ± 0.23	-2.94 ± 0.38
GAAGAGCAAUAUUACGCUAG	-4.24 ± 0.37	-1.13 ± 0.21
GAAGAGCAAUAUUACGGAGC	–	-1.64 ± 0.37
GAAGAGCAAUAUUACGGAUU	-2.29 ± 0.15	-1.79 ± 0.19
GAAGAGCAAUAUUACGGCAG	-4.54 ± 0.36	-1.97 ± 0.23
GAAGAGCAAUAUUACGGCUA	-1.5 ± 0.15	-0.512 ± 0.15
GAAGAGCAAUAUUACGGCUU	-0.88 ± 0.14	0.407 ± 0.13
GAAGAGCAAUAUUACGGGAC	-3.76 ± 0.25	-2.3 ± 0.24
GAAGAGCAAUAUUACGUACG	-3.52 ± 0.25	-2.15 ± 0.22
GAAGAGCAAUAUUACGUAGA	-4.54 ± 0.42	-2.21 ± 0.25
GAAGAGCAAUAUUACGUCCU	-2.59 ± 0.48	-0.861 ± 0.29
GAAGAGCAAUAUUACGUUUG	-4.05 ± 0.2	-2.8 ± 0.23
GAAUAGCAAUAUUACGAAAC	-1.62 ± 0.24	-0.632 ± 0.17
GAAUAGCAAUAUUACGAACU	-0.471 ± 0.085	0.508 ± 0.1
GAAUAGCAAUAUUACGAAGA	-2.78 ± 0.33	-1.45 ± 0.25
GAAUAGCAAUAUUACGAAUC	-2.32 ± 0.14	-0.98 ± 0.14
GAAUAGCAAUAUUACGACUA	-1.42 ± 0.2	-0.533 ± 0.31
GAAUAGCAAUAUUACGAGAG	-2.92 ± 0.2	-3.05 ± 0.28
GAAUAGCAAUAUUACGAGCG	-1.62 ± 0.069	-0.354 ± 0.076
GAAUAGCAAUAUUACGAUGC	-1.02 ± 0.095	-0.245 ± 0.12
GAAUAGCAAUAUUACGCAAA	-3.06 ± 0.38	-1.75 ± 0.27
GAAUAGCAAUAUUACGCAAU	-2.31 ± 0.11	-0.898 ± 0.15

Sequence	self-splicing fitness (ln) (30 °C)	self-splicing fitness (ln) (37 °C)
GAAUAGCAAUAUUACGCCAG	-2.58 ± 0.24	-1.69 ± 0.3
GAAUAGCAAUAUUACGCGCG	-0.825 ± 0.1	-0.591 ± 0.13
GAAUAGCAAUAUUACGCUAG	-2.22 ± 0.16	-0.535 ± 0.14
GAAUAGCAAUAUUACGGACC	-0.00208 ± 0.1	0.0435 ± 0.18
GAAUAGCAAUAUUACGGCGA	-1.11 ± 0.11	-0.3 ± 0.11
GAAUAGCAAUAUUACGGCUA	-0.51 ± 0.15	-0.595 ± 0.14
GAAUAGCAAUAUUACGGGAG	–	-3.35 ± 0.33
GAAUAGCAAUAUUACGGGCG	-1.16 ± 0.078	-0.509 ± 0.1
GAAUAGCAAUAUUACGGGUG	-3.74 ± 0.15	-1.03 ± 0.095
GAAUAGCAAUAUUACGUGCA	-0.851 ± 0.083	-0.317 ± 0.11
GAAUAGCAAUAUUACGUUCG	-1.16 ± 0.13	-0.541 ± 0.17
GAAUAGCAAUAUUACGUUUG	-1.61 ± 0.15	-1.05 ± 0.15
GACAAGCAAUAUUACGAAAC	-2.29 ± 0.18	-2.5 ± 0.17
GACAAGCAAUAUUACGAGAC	-2.95 ± 0.27	-2.29 ± 0.27
GACAAGCAAUAUUACGAGGG	-4.27 ± 0.18	-2.81 ± 0.15
GACAAGCAAUAUUACGAUAA	-1.68 ± 0.11	-0.345 ± 0.1
GACAAGCAAUAUUACGAUGA	-0.527 ± 0.078	-0.303 ± 0.085
GACAAGCAAUAUUACGAUGG	-2.52 ± 0.1	-2.14 ± 0.16
GACAAGCAAUAUUACGCACC	-1.43 ± 0.14	-0.635 ± 0.19
GACAAGCAAUAUUACGCGGC	-2.75 ± 0.17	-3.11 ± 0.21
GACAAGCAAUAUUACGGAGU	-3.03 ± 0.1	-0.954 ± 0.1
GACAAGCAAUAUUACGGCGA	-0.213 ± 0.074	0.21 ± 0.085
GACAAGCAAUAUUACGGCGC	-0.29 ± 0.098	0.11 ± 0.12
GACAAGCAAUAUUACGGGAC	-2.13 ± 0.25	-1.02 ± 0.4

Sequence	self-splicing fitness (ln) (30 °C)	self-splicing fitness (ln) (37 °C)
GACAAGCAAUAUUACGUAGA	-2.31 ± 0.092	-0.707 ± 0.097
GACAAGCAAUAUUACGUCAG	-3.3 ± 0.23	-2.21 ± 0.2
GACAAGCAAUAUUACGUGCC	-1.69 ± 0.14	-1.21 ± 0.17
GACAAGCAAUAUUACGUGGC	-4.6 ± 0.32	-1.61 ± 0.11
GACAAGCAAUAUUACGUGUA	-1.56 ± 0.071	-0.227 ± 0.078
GACAAGCAAUAUUACGUUGC	-3.63 ± 0.14	-2.31 ± 0.16
GACCAGCAAUAUUACGAAAG	-2.49 ± 0.1	-2.58 ± 0.18
GACCAGCAAUAUUACGAAGA	-1.44 ± 0.14	-0.589 ± 0.12
GACCAGCAAUAUUACGAAUC	-0.584 ± 0.096	-0.196 ± 0.1
GACCAGCAAUAUUACGAGAA	-1.67 ± 0.15	-1.05 ± 0.15
GACCAGCAAUAUUACGAGAC	-0.715 ± 0.15	-1.49 ± 0.18
GACCAGCAAUAUUACGAGUA	-1.03 ± 0.087	0.128 ± 0.084
GACCAGCAAUAUUACGAUAA	-1.53 ± 0.094	-1.13 ± 0.1
GACCAGCAAUAUUACGAUAG	-1.73 ± 0.074	-1.45 ± 0.11
GACCAGCAAUAUUACGCCUG	-2.16 ± 0.11	-0.614 ± 0.12
GACCAGCAAUAUUACGCGUC	-4.75 ± 0.38	-2.54 ± 0.22
GACCAGCAAUAUUACGCUCA	-0.152 ± 0.059	-0.295 ± 0.079
GACCAGCAAUAUUACGCUCU	-0.6 ± 0.061	0.0283 ± 0.089
GACCAGCAAUAUUACGCUGU	-3.34 ± 0.15	-1.54 ± 0.095
GACCAGCAAUAUUACGGGGG	-1.92 ± 0.08	-1.17 ± 0.089
GACCAGCAAUAUUACGGUAG	-0.241 ± 0.066	0.668 ± 0.085
GACCAGCAAUAUUACGGUCA	-1.44 ± 0.099	-0.935 ± 0.1
GACCAGCAAUAUUACGGUGC	-2.31 ± 0.067	-2.09 ± 0.09
GACCAGCAAUAUUACGUACG	-1.34 ± 0.074	-0.696 ± 0.088

From the supplement of paper PMC7877785
